Source: the Immune Epitope Database (IEDB)
One block for each sequence: values may come before it.

Tests used:
Experiment in all cases: IEDB peptide-MHC binding, purified MHC/competitive/radioactivity; filed as Kd, often an IC50 or EC50 that approximates it; ≥ and ≤ were set here for values at or beyond the usual limits of such assays
HLA-A*33:01 = molecular target: HLA-A*33:01
HLA-A*31:01 = molecular target: HLA-A*31:01
HLA-A*11:01 = molecular target: HLA-A*11:01
HLA-A*03:01 = molecular target: HLA-A*03:01
HLA-A*68:01 = molecular target: HLA-A*68:01
HLA-A*02:03 = molecular target: HLA-A*02:03
HLA-A*02:06 = molecular target: HLA-A*02:06
[1] = source organism: Vaccinia virus WR
[2] = source organism: Dengue virus 1 Brazil/97-11/1997
[3] = source organism: Dengue virus 3 Martinique/1243/1999
[4] = source organism: Dengue virus 1 Singapore/S275/1990
[5] = source organism: SARS coronavirus Tor2
[6] = source organism: Dengue virus 2 Jamaica/1409/1983
[7] = source organism: Dengue virus 4 Philippines/H241/1956
[8] = source organism: Dengue virus 1 Nauru/West Pac/1974
[9] = source organism: Mammarenavirus guanaritoense

Sequence: PSTDVNKQNK
Kd (HLA-A*33:01; [1]): ≥ 70000 nM
Kd (HLA-A*31:01; [1]): 4780 nM
Kd (HLA-A*11:01; [1]): 3610 nM
Kd (HLA-A*03:01; [1]): 1260 nM
Kd (HLA-A*68:01; [1]): ≥ 26800 nM

Sequence: SLELIIIHTK
Kd (HLA-A*33:01; [1]): ≥ 53400 nM
Kd (HLA-A*31:01; [1]): 130 nM
Kd (HLA-A*11:01; [1]): 1300 nM
Kd (HLA-A*03:01; [1]): 16200 nM
Kd (HLA-A*68:01; [1]): 8050 nM

Sequence: TLWEGSPGK
Kd (HLA-A*03:01; [2]): 328 nM

Sequence: VMHINSPFK
Kd (HLA-A*33:01; [1]): 10700 nM
Kd (HLA-A*31:01; [1]): 19.9 nM
Kd (HLA-A*11:01; [1]): 0.224 nM
Kd (HLA-A*03:01; [1]): 1.8 nM
Kd (HLA-A*68:01; [1]): 79.3 nM

Sequence: VTDLENRLK
Kd (HLA-A*33:01; [1]): 13100 nM
Kd (HLA-A*31:01; [1]): 13600 nM
Kd (HLA-A*11:01; [1]): 25.9 nM
Kd (HLA-A*03:01; [1]): 2250 nM
Kd (HLA-A*68:01; [1]): 7250 nM

Sequence: AVVLMGLDK
Kd (HLA-A*11:01; [3]): 2470 nM

Sequence: HATMLDVDLR
Kd (HLA-A*68:01; [4]): 90.6 nM

Sequence: ALKYLPIDK
Kd (HLA-A*33:01; [5]): ≥ 48500 nM
Kd (HLA-A*31:01; [5]): 6570 nM
Kd (HLA-A*11:01; [5]): 878 nM
Kd (HLA-A*03:01; [5]): 299 nM
Kd (HLA-A*68:01; [5]): 2370 nM

Sequence: VQIDRLITGR
Kd (HLA-A*33:01; [5]): 912 nM
Kd (HLA-A*31:01; [5]): 43.6 nM
Kd (HLA-A*11:01; [5]): 3020 nM
Kd (HLA-A*03:01; [5]): 1990 nM
Kd (HLA-A*68:01; [5]): 1030 nM

Sequence: YLWEVKKQR
Kd (HLA-A*33:01; [6]): 65.4 nM

Sequence: SLAAIANQA
Kd (HLA-A*02:03; [3]): 55 nM

Sequence: NMTSRMLLNR
Kd (HLA-A*33:01; [2]): 73.7 nM
Kd (HLA-A*31:01; [2]): 12000 nM
Kd (HLA-A*68:01; [2]): 470 nM

Sequence: MGANFRAGR
Kd (HLA-A*68:01; [7]): 46.7 nM

Sequence: KQLGQIMLL
Kd (HLA-A*02:06; [2]): 5.76 nM

Sequence: GLAMGIMMLK
Kd (HLA-A*11:01; [2]): 156 nM
Kd (HLA-A*03:01; [2]): 12.1 nM

Sequence: LTMFLITENK
Kd (HLA-A*11:01; [8]): 30.4 nM
Kd (HLA-A*03:01; [8]): 4.57 nM
Kd (HLA-A*68:01; [8]): 23 nM

Sequence: ATTIITPMMR
Kd (HLA-A*31:01; [8]): ≥ 70000 nM
Kd (HLA-A*11:01; [8]): 162 nM
Kd (HLA-A*68:01; [8]): 386 nM

Sequence: LQMEDKAWL
Kd (HLA-A*02:06; [6]): 32.2 nM

Sequence: LMYFHRRDLR
Kd (HLA-A*33:01; [6]): 17.3 nM
Kd (HLA-A*31:01; [6]): 0.556 nM
Kd (HLA-A*03:01; [6]): 142 nM
Kd (HLA-A*68:01; [6]): 207 nM

Sequence: GICSCGAFK
Kd (HLA-A*11:01; source organism: Lymphocytic choriomeningitis virus (strain Armstrong)): 54.6 nM

Sequence: IMQRGLFGK
Kd (HLA-A*11:01; [7]): 327 nM
Kd (HLA-A*03:01; [7]): 85.6 nM

Kd (HLA-A*02:03; source organism: Homo sapiens): 1.04 nM
Sequence: YVASYLLAAL

Sequence: MSAAIKDSK
Kd (HLA-A*11:01; [2]): 1120 nM
Kd (HLA-A*68:01; [2]): 76.6 nM

Sequence: VQTAPGTFK
Kd (HLA-A*11:01; [4]): 129 nM

Sequence: QMWSLMYFHR
Kd (HLA-A*33:01; [3]): 4.14 nM
Kd (HLA-A*31:01; [3]): 1.41 nM

Sequence: TTIITPMMR
Kd (HLA-A*33:01; [8]): 52.9 nM
Kd (HLA-A*11:01; [8]): 215 nM
Kd (HLA-A*68:01; [8]): 4.15 nM

Sequence: IMAYVNQAHH
Kd (HLA-A*33:01; [9]): 3920 nM
Kd (HLA-A*31:01; [9]): 1120 nM
Kd (HLA-A*03:01; [9]): 4010 nM
Kd (HLA-A*68:01; [9]): 97 nM

Sequence: LALSLTFIR
Kd (HLA-A*33:01; [7]): 6.39 nM
Kd (HLA-A*31:01; [7]): 97.1 nM

Sequence: IMKDGRKLV
Kd (HLA-A*02:03; [3]): 558 nM

Sequence: ETTKHAVSR
Kd (HLA-A*33:01; [2]): 10.6 nM
Kd (HLA-A*68:01; [2]): 10.3 nM

Sequence: SLVMLLVHYA
Kd (HLA-A*02:03; [7]): 640 nM
Kd (HLA-A*02:06; [7]): 423 nM
